Source: US12281162 (LANOVA MEDICINES DEVELOPMENT, dated 2025)

Columns and labels:
[1] = target: T1, human G-protein-coupled receptor family C group 5 member D (GPRC5D) (human, UniProt Q9NZD1 1-345); test: FACS, CHO-K1/human GPRC5D
T1 construct: whole, on cells; also called human GPRC5D protein

[2] = target: T1, human G-protein-coupled receptor family …; test: FACS, NCI-H929 cells
[3] = target: T1, human G-protein-coupled receptor family …; test: FACS, CHO-K1/GPRC5D
[4] = target: T1, human G-protein-coupled receptor family …; test: FACS, CHO-K1/human GPRC5D, chimeric antibody
Experimental: CHO—K1 cells stably expressed human GPRC5D, were harvested from flasks. 100 µl of 1×10⁶ cells/ml of cells were incubated with primary chimeric antibodies in 3-fold serial dilutions starting from 300 nM to 0.001 nM for 30 minutes on ice. After being washed with 200 µl of FACS buffer twice, cells were incubated with secondary antibody for 30 minutes on ice. Cells were washed with 200 µl of FACS buffer twice and transferred to BD Falcon 5 ml tube and analyzed by FACS.

T1 sequence (Q9NZD1 whole entry): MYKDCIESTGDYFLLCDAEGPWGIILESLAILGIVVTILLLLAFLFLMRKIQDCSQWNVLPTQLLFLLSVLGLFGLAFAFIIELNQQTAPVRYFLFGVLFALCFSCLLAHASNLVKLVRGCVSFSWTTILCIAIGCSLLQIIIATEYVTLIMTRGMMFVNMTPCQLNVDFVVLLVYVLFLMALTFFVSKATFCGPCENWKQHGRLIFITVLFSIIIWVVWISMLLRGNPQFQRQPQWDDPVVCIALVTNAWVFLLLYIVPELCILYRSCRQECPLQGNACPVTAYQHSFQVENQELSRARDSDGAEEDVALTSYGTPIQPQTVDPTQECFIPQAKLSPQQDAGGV

Binder | Bottom [1] | LogEC50 [1] | Span [1] | Top [1] | Bottom [2] | LogEC50 [2] | Span [2] | Top [2] | Bottom [3] | LogEC50 [3] | Span [3] | Top [3] | Bottom [4] | LogEC50 [4] | Span [4] | Top [4]
6G10D9-XI (antibody, V domains shown, also called 6G10D9 (chimeric); 6G1009-X1) VH: QVQLQQSGAELARPGASVKMSCKASGYTFTTYTMHWVKQRPGQGLEWLGYINPSSGYTNYNQKFKDKATLTAGKSSSTAYMQLSSLTSEDSAVYYCASLRSRGYFDYWGQGTTLTVSS VL: DIVMTQSQTFMSTSVGDRVRITCKASQNVGTAVVWYQQKTGQSPRLLIYSASNRYTGVPDRFTGSGSGTDFTLTISNMQSEDLADFFCQQYSSYPYTFGGGTKLEIK | 524 | 0.472 | 104000 | 104000 | 269 | 0.0515 | 13500 | 13800 | 6860 | 0.299 | 115000 | 122000 | 6890 | 0.101 | 451000 | 458000
6-H3L3 (antibody, V domains shown, humanized 6G10D9, VH v3 x VL v3) VH: QVQLVQSGAEVAKPGASVKVSCKASGYTFTTYTMHWVKQAPGQGLEWLGYINPSSGYTNYNQKFKDRVTMTADTSTSTVYMELSSLRSEDTAVYYCASLRSRGYFDYWGQGTLVTVSS VL: DIQMTQSPSFLSTSVGDRVTITCKASQNVGTAVVWYQQKPGKSPKLLIYSASNRYTGVPSRFSGSGSGTEFTLTISSMQPEDFATFFCQQYSSYPYTFGQGTKLEIK | 172 | 1.41 | 134000 | 134000 | 130 | 1.47 | 21700 | 21900 | 3990 | 0.955 | 115000 | 119000 | – | – | – | –
6-H4L3 (antibody, V domains shown, humanized 6G10D9, VH v4 x VL v3) VH: QVQLVQSGAEVAKPGASVKMSCKASGYTFTTYTMHWVKQAPGQGLEWLGYINPSSGYTNYNQKFKDRVTLTADTSTSTVYMELSSLRSEDTAVYYCASLRSRGYFDYWGQGTLLTVSS VL: DIQMTQSPSFLSTSVGDRVTITCKASQNVGTAVVWYQQKPGKSPKLLIYSASNRYTGVPSRFSGSGSGTEFTLTISSMQPEDFATFFCQQYSSYPYTFGQGTKLEIK | 109 | 1.42 | 146000 | 146000 | 80 | 1.61 | 28900 | 29000 | 2340 | 0.905 | 124000 | 126000 | – | – | – | –
6-H4L2 (antibody, V domains shown, humanized 6G10D9, VH v4 x VL v2) VH: QVQLVQSGAEVAKPGASVKMSCKASGYTFTTYTMHWVKQAPGQGLEWLGYINPSSGYTNYNQKFKDRVTLTADTSTSTVYMELSSLRSEDTAVYYCASLRSRGYFDYWGQGTLLTVSS VL: DIQLTQSPSFLSTSVGDRVTITCKASQNVGTAVVWYQQKPGKSPKLLIYSASNRYTGVPSRFSGSGSGTEFTLTISSLQPEDFATFYCQQYSSYPYTFGQGTKLEIK | – | – | – | – | – | – | – | – | 9.56 | 1.98 | 39400 | 39400 | – | – | – | –
